B1: FBXO3 (parent)
chain: DEEERRRRVFDVPIRRRRCSRLF
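Also: lentivirally expressed fusions sorted by FACS into six bins by GFP to DsRed ratio, PSI derived from sequencing read proportions per bin multiplied by bin number.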

Variants of: B1
Experiment: protein stability index of a GFP-peptide fusion (GPS, HEK-293T) (PSI 1-6); higher = more stable
Conditions: c terminus: native
Variant DEEERRRRVFDVPIRRLRCSRLF [R17L] has a protein stability index of 1.84.
Variant DEEERRRRVFDVPIRRFRCSRLF [R17F] has a protein stability index of 1.87.
In the case of DEEERRRRVFDVPIRRWRCSRLF [R17W], the protein stability index is reported as 2.83.
With DEEERRRRVFDVPIRRHRCSRLF [R17H] the protein stability index was 2.21.
For DEEERRRRVFDVPIRRARCSRLF [R17A], the protein stability index was 2.5.
DEEERRRRVFDVPIRRTRCSRLF [R17T] gave a protein stability index of 2.82.
Work on DEEERRRRVFDVPIRRSRCSRLF [R17S] yielded a protein stability index of 1.77.
Variant DEEERRRRVFDVPIRRNRCSRLF [R17N] has a protein stability index of 2.09.
In the case of DEEERRRRVFDVPIRRCRCSRLF [R17C], the protein stability index is reported as 1.71.
In the case of DEEERRRRVFDVPIRRDRCSRLF [R17D], the protein stability index is reported as 2.17.
With DEEERRRRVFDVPIRRERCSRLF [R17E] the protein stability index was 2.27.
For DEEERRRRVFDVPIRRIRCSRLF [R17I], the protein stability index was 1.84.
Work on DEEERRRRVFDVPIRRPRCSRLF [R17P] yielded a protein stability index of 1.96.
Work on DEEERRRRVFDVPIRRKRCSRLF [R17K] yielded a protein stability index of 3.27.
DEEERRRRVFDVPIRRMRCSRLF [R17M] gave a protein stability index of 2.27.
Variant DEEERRRRVFDVPIRRYRCSRLF [R17Y] has a protein stability index of 1.58.
Variant DEEERRRRVFDVPIRRVRCSRLF [R17V] has a protein stability index of 2.06.
Variant DEEERRRRVFDVPIRRQRCSRLF [R17Q] has a protein stability index of 2.5.
In the case of DEEERRRRVFDVPIRRGRCSRLF [R17G], the protein stability index is reported as 1.98.
DEEERRRRVFDVPIRRRRCSRMF [L22M] gave a protein stability index of 2.28.
DEEERRRRVFDVPIRRRRCSRPF [L22P] showed a protein stability index of 3.85.
With DEEERRRRVFDVPIRRRRCSRWF [L22W] the protein stability index was 3.03.
DEEERRRRVFDVPIRRRRCSRGF [L22G] showed a protein stability index of 3.06.
With DEEERRRRVFDVPIRRRRCSRCF [L22C] the protein stability index was 2.71.
DEEERRRRVFDVPIRRRRCSRIF [L22I] showed a protein stability index of 2.82.
Variant DEEERRRRVFDVPIRRRRCSRTF [L22T] has a protein stability index of 2.46.
With DEEERRRRVFDVPIRRRRCSRYF [L22Y] the protein stability index was 2.63.
Work on DEEERRRRVFDVPIRRRRCSRKF [L22K] yielded a protein stability index of 4.67.
Variant DEEERRRRVFDVPIRRRRCSRDF [L22D] has a protein stability index of 4.94.
DEEERRRRVFDVPIRRRRCSRNF [L22N] gave a protein stability index of 2.09.
In the case of DEEERRRRVFDVPIRRRRCSRVF [L22V], the protein stability index is reported as 2.12.
With DEEERRRRVFDVPIRRRRCSREF [L22E] the protein stability index was 4.92.
DEEERRRRVFDVPIRRRRCSRHF [L22H] gave a protein stability index of 2.94.
For DEEERRRRVFDVPIRRRRCSRQF [L22Q], the protein stability index was 1.55.
Work on DEEERRRRVFDVPIRRRRCSRRF [L22R] yielded a protein stability index of 3.97.
For DEEERRRRVFDVPIRRRRCSRAF [L22A], the protein stability index was 3.3.
In the case of DEEERRRRVFDVPIRRRRCSRSF [L22S], the protein stability index is reported as 2.17.
With DEEERRRRVFDVPIRRRRCSRFF [L22F] the protein stability index was 4.44.
Variant DEEERRRRVFDVPIRYRRCSRLF [R16Y] has a protein stability index of 1.72.
DEEERRRRVFDVPIRFRRCSRLF [R16F] showed a protein stability index of 1.93.
For DEEERRRRVFDVPIRKRRCSRLF [R16K], the protein stability index was 3.51.
Variant DEEERRRRVFDVPIRGRRCSRLF [R16G] has a protein stability index of 3.45.
Variant DEEERRRRVFDVPIRHRRCSRLF [R16H] has a protein stability index of 2.23.
Work on DEEERRRRVFDVPIRMRRCSRLF [R16M] yielded a protein stability index of 2.21.
With DEEERRRRVFDVPIRNRRCSRLF [R16N] the protein stability index was 2.21.
Work on DEEERRRRVFDVPIRLRRCSRLF [R16L] yielded a protein stability index of 2.19.
DEEERRRRVFDVPIRARRCSRLF [R16A] showed a protein stability index of 2.53.
DEEERRRRVFDVPIRWRRCSRLF [R16W] showed a protein stability index of 1.99.
In the case of DEEERRRRVFDVPIRVRRCSRLF [R16V], the protein stability index is reported as 2.27.
DEEERRRRVFDVPIRPRRCSRLF [R16P] gave a protein stability index of 3.45.
DEEERRRRVFDVPIRERRCSRLF [R16E] gave a protein stability index of 2.55.
With DEEERRRRVFDVPIRTRRCSRLF [R16T] the protein stability index was 2.19.
DEEERRRRVFDVPIRCRRCSRLF [R16C] showed a protein stability index of 1.91.
Variant DEEERRRRVFDVPIRSRRCSRLF [R16S] has a protein stability index of 2.28.
DEEERRRRVFDVPIRQRRCSRLF [R16Q] showed a protein stability index of 2.24.
Variant DEEERRRRVFDVPIRDRRCSRLF [R16D] has a protein stability index of 2.22.
Variant DEEERRRRVFDVPIRIRRCSRLF [R16I] has a protein stability index of 2.2.
DEEERRRRVFDVPIRRRRCHRLF [S20H] gave a protein stability index of 2.68.
With DEEERRRRVFDVPIRRRRCMRLF [S20M] the protein stability index was 2.04.
DEEERRRRVFDVPIRRRRCIRLF [S20I] showed a protein stability index of 2.05.
In the case of DEEERRRRVFDVPIRRRRCFRLF [S20F], the protein stability index is reported as 2.77.
In the case of DEEERRRRVFDVPIRRRRCNRLF [S20N], the protein stability index is reported as 2.61.
For DEEERRRRVFDVPIRRRRCPRLF [S20P], the protein stability index was 2.51.
For DEEERRRRVFDVPIRRRRCERLF [S20E], the protein stability index was 3.04.
With DEEERRRRVFDVPIRRRRCYRLF [S20Y] the protein stability index was 2.22.
Work on DEEERRRRVFDVPIRRRRCCRLF [S20C] yielded a protein stability index of 4.36.
With DEEERRRRVFDVPIRRRRCWRLF [S20W] the protein stability index was 2.47.
With DEEERRRRVFDVPIRRRRCQRLF [S20Q] the protein stability index was 2.69.
With DEEERRRRVFDVPIRRRRCTRLF [S20T] the protein stability index was 1.91.
For DEEERRRRVFDVPIRRRRCGRLF [S20G], the protein stability index was 3.48.
DEEERRRRVFDVPIRRRRCLRLF [S20L] showed a protein stability index of 2.36.
DEEERRRRVFDVPIRRRRCARLF [S20A] gave a protein stability index of 2.15.
DEEERRRRVFDVPIRRRRCKRLF [S20K] showed a protein stability index of 2.69.
For DEEERRRRVFDVPIRRRRCVRLF [S20V], the protein stability index was 2.06.
Variant DEEERRRRVFDVPIRRRRCDRLF [S20D] has a protein stability index of 2.2.
In the case of DEEERRRRVFDVPIRRRRCRRLF [S20R], the protein stability index is reported as 3.35.
With DEEERRRRVFDVPICRRRCSRLF [R15C] the protein stability index was 2.99.
With DEEERRRRVFDVPIFRRRCSRLF [R15F] the protein stability index was 1.93.
DEEERRRRVFDVPIGRRRCSRLF [R15G] showed a protein stability index of 2.74.
In the case of DEEERRRRVFDVPIARRRCSRLF [R15A], the protein stability index is reported as 2.88.
Work on DEEERRRRVFDVPILRRRCSRLF [R15L] yielded a protein stability index of 1.98.
Variant DEEERRRRVFDVPIIRRRCSRLF [R15I] has a protein stability index of 2.31.
In the case of DEEERRRRVFDVPIVRRRCSRLF [R15V], the protein stability index is reported as 2.78.
With DEEERRRRVFDVPIYRRRCSRLF [R15Y] the protein stability index was 1.88.
DEEERRRRVFDVPIPRRRCSRLF [R15P] showed a protein stability index of 2.56.
DEEERRRRVFDVPINRRRCSRLF [R15N] gave a protein stability index of 2.21.
DEEERRRRVFDVPIQRRRCSRLF [R15Q] showed a protein stability index of 2.27.
With DEEERRRRVFDVPIDRRRCSRLF [R15D] the protein stability index was 2.27.
Variant DEEERRRRVFDVPIERRRCSRLF [R15E] has a protein stability index of 2.44.
DEEERRRRVFDVPITRRRCSRLF [R15T] gave a protein stability index of 2.72.
DEEERRRRVFDVPIMRRRCSRLF [R15M] showed a protein stability index of 1.72.
With DEEERRRRVFDVPISRRRCSRLF [R15S] the protein stability index was 2.39.
Work on DEEERRRRVFDVPIKRRRCSRLF [R15K] yielded a protein stability index of 3.65.
With DEEERRRRVFDVPIHRRRCSRLF [R15H] the protein stability index was 1.85.
With DEEERRRRVFDVPIRRRRCSRLM [F23M] the protein stability index was 2.45.
In the case of DEEERRRRVFDVPIRRRRCSRLP [F23P], the protein stability index is reported as 2.6.

Source: the supplement of paper PMC10567573
